Reference: article PMC10659161, “Cryo-electron tomography reveals the binding and release states of the major adhesion complex from Mycoplasma genitalium” (PLOS Pathogens, 2023)

Target: T1, P140 (Mycoplasma genitalium, UniProt P20796 59-1444)
T1 construct: P140 of the nap particle adhesion complex, Mycoplasma genitalium G37; endogenous and not truncated, with stalk, transmembrane helix and intracellular region (residues up to 1444 are spoken of); The same endogenous protein was also studied in the nap particle purified from M. genitalium; that purification is described in an earlier publication of the authors; also called P140 adhesin of the nap …
T1 sequence: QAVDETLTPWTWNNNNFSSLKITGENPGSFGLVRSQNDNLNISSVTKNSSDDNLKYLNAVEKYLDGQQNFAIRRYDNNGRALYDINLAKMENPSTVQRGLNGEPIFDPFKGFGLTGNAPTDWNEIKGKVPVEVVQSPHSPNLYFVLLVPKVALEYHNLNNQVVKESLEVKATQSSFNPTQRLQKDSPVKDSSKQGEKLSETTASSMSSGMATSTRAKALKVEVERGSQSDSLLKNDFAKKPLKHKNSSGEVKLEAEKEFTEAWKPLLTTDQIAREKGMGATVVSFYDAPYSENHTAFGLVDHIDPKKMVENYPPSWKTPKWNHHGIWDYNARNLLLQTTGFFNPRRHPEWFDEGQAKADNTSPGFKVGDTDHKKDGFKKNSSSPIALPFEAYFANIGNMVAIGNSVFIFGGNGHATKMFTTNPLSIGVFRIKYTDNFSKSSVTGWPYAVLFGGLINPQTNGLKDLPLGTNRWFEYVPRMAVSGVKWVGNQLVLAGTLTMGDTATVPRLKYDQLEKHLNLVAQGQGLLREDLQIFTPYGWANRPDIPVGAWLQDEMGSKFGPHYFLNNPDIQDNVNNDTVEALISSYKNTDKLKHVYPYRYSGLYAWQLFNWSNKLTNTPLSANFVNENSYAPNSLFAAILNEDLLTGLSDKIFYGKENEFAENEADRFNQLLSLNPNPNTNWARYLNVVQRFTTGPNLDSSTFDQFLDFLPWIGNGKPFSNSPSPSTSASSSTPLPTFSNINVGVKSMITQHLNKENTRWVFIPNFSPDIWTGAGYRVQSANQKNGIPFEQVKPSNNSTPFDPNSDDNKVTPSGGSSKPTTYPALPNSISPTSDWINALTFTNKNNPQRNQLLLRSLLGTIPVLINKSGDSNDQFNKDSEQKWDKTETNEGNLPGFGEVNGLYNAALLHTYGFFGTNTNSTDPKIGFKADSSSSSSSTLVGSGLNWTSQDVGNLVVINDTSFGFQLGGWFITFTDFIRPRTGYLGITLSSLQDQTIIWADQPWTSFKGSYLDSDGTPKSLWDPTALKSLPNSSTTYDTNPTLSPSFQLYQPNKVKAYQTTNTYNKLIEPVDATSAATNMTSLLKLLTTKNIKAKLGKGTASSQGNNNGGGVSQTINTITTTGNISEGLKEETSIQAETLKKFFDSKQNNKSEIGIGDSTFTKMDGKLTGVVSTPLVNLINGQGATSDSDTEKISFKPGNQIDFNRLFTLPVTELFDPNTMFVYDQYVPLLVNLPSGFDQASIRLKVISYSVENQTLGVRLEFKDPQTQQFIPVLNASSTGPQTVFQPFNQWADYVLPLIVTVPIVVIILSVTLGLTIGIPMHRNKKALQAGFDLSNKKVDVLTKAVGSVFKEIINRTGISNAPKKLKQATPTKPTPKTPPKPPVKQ
Test: cryo-EM structure; single-particle cryo-EM of the isolated nap particle purified from M. genitalium, with and without soaking in 10 mM 6'-SL (75 mM Tris-HCl pH 7.4, 400 mM NaCl, 5% glycerol, 0.5% octylglucoside); heterodimer classes at 3.3 and 3.7 Å, tetramer classes at 8.3, 7.3 and 7.7 Å
Conditions: both partners purified

B1: P110 (natural protein)
chain: NTFLVKEDSKNVTAYTPFATPITDSKSDLVSLAQLDSSYQIADQTIHNTNLFVLFKSRDVKVKYESSGSNNISFDSTSQGEKPSYVVEFTNSTNIGIKWTMVKKYQLDVPNVSSDMNQVLKNLILEQPLTKYTLNSSLAKEKGKTQREVHLGSGQANQWTSQRNQHDLNNNPSPNASTGFKLTTGNAYRKLSESWPIYEPIDGTKQGKGKDSSGWSSTEENEAKNDAPSVSGGGSSSGTFNKYLNTKQALESIGILFDDQTPRNVITQLYYASTSKLAVTNNHIVVMGNSFLPSMWYWVVERSAQENASNKPTWFANTNLDWGEDKQKQFVENQLGYKETTSTNSHNFHSKSFTQPAYLISGIDSVNDQIIFSGFKAGSVGYDSSSSSSSSSSSSTKDQALAWSTTTSLDSKTGYKDLVTNDTGLNGPINGSFSIQDTFSFVVPYSGNHTNNGTTGPIKTAYPVKKDQKSTVKINSLINATPLNSYGDEGIGVFDALGLNYNFKSNQERLPSRTDQIFVYGIVSPNELRSAKSSADSTGSDTKVNWSNTQSRYLPVPYNYSEGIIDADGFKRPENRGASVTTFSGLKSIAPDGFANSIANFSVGLKAGIDPNPVMSGKKANYGAVVLTRGGVVRLNFNPGNDSLLSTTDNNIAPISFSFTPFTAAESAVDLTTFKEVTYNQESGLWSYIFDSSLKPSHDGKQTPVTDNMGFSVITVSRTGIELNQDQATTTLDVAPSALAVQSGIQSTTQTLTGVLPLSEEFSAVIAKDSDQNKIDIYKNNNGLFEIDTQLSNSVATNNGGLAPSYTENRVDAWGKVEFADNSVLQARNLVDKTVDEIINTPEILNSFFRFTPAFEDQKATLVATKQSDTSLSVSPRIQFLDGNFYDLNSTIAGVPLNIGFPSRVFAGFAALPAWVIPVSVGSSVGILFILLVLGLGIGIPMYRVRKLQDASFVNVFKKVDTLTTAVGSVYKKIITQTGVVKKAPSALKAANPSVKKPAAFLKPPVQPPSKPEGEQKAVEVKSEETKS
notes: P110 of the nap particle adhesion complex, Mycoplasma genitalium G37; endogenous and not truncated, with stalk, transmembrane helix and intracellular region (residues up to 1053 are spoken of); The same endogenous protein was also studied in the nap particle purified from M. genitalium; that purification is described in an earlier publication of the authors; also called P110 adhesin of the nap …
B1: binds.
